Legend:
N[C@@H](Cc1ccccc1)C(=O)O = system: T1, N[C@@H](Cc1ccccc1)C(=O)O; assay: succinate release, succinic acid assay kit; Michaelis-Menten fit; type: biochemical, Bacillus thuringiensis; conditions: 10 mM alpha-KG, 0.5 mM FeSO4, 10 mM ascorbic acid, 50 mM Bis-Tris pH 6.0, 25 °C
T1 construct: full-length ido (240 aa without tag) in pET-28a(+) NcoI/SalI, expressed in E. coli BL21(DE3), Ni column
From the text: (§1) succinate release, succinic acid assay kit; Michaelis-Menten fit on L-isoleucine dioxygenase (IDO)

[1] = system: T2, N[C@@H](CCc1ccccc1)C(=O)O; assay: as above; type: biochemical, Bacillus thuringiensis; conditions: 10 mM alpha-KG, 0.5 mM FeSO4, 10 mM ascorbic acid, 50 mM Bis-Tris pH 6.0, 25 °C
T2 construct: full-length ido (240 aa without tag) in pET-28a(+) NcoI/SalI, expressed in E. coli BL21(DE3), Ni column
From the text: as §1

Substance | Km (N[C@@H](Cc1ccccc1)C(=O)O) [µM] | Vmax (N[C@@H](Cc1ccccc1)C(=O)O) [µmol/min/mg] | kcat (N[C@@H](Cc1ccccc1)C(=O)O) [s⁻¹] | kcat/Km (N[C@@H](Cc1ccccc1)C(=O)O) [M⁻¹ s⁻¹] | Km [1] [µM] | Vmax [1] [µmol/min/mg] | kcat [1] [s⁻¹] | kcat/Km [1] [M⁻¹ s⁻¹]
L-isoleucine dioxygenase (IDO) (Bacillus thuringiensis; S153A) | 20 ± 0 | 0.05 | 0.03 | 1500 ± 50 | 20 ± 0 | 0.09 | 0.05 | 2500 ± 40
L-isoleucine dioxygenase (IDO) (Bacillus thuringiensis; S153Q) | – | – | – | – | 40 ± 10 | 0.21 | 0.14 ± 0.01 | 3500 ± 100
L-isoleucine dioxygenase (IDO) (Bacillus thuringiensis; S153Y) | – | – | – | – | 20 ± 0 | 0.08 | 0.03 | 1500 ± 40
L-isoleucine dioxygenase (IDO) (Bacillus thuringiensis; Y143D) | 40 ± 0 | 0.15 | 0.08 | 2000 ± 10 | – | – | – | –
L-isoleucine dioxygenase (IDO) (Bacillus thuringiensis; Y143I) | 30 ± 0 | 0.1 | 0.04 | 1330 ± 40 | 20 ± 0 | 0.08 | 0.04 | 2000 ± 80
